Legend:
HuR/ELAVL1 = target: T1, HuR/ELAVL1 (Homo sapiens, UniProt Q15717); experiment: AlphaScreen ([…]) and REMSA ([…]) of rHuR-RNA complex formation; format: biochemical
T1 construct: full-length human HuR with C-terminal Myc-His tag (rHuR), purified from HEK293T cells

rHuR (HuR-Myc-His) [1] = target: T2, rHuR (HuR-Myc-His) (Homo sapiens, UniProt Q15717 1-326); experiment: AlphaScreen competition; versus 50 nM Bi-TNF, 1 nM rHuR; AlphaScreen: 25 mM HEPES pH 7.4, 100 mM NaCl, 0.1% BSA, room temperature; REMSA: 20 mM HEPES pH 7.5, 50 mM KCl, 0.5 ug BSA, 0.25% glycerol, room temperature, 6% native gel 0.5X TBE at 4 C; details: protein: recombinant; tags: C-terminal c-Myc and His6; single strand
rHuR (HuR-Myc-His) [2] = target: T2, rHuR (HuR-Myc-His); experiment: AlphaScreen saturation binding; signal near background, probe 0-100 nM; AlphaScreen: 25 mM HEPES pH 7.4, 100 mM NaCl, 0.1% BSA, room temperature; REMSA: 20 mM HEPES pH 7.5, 50 mM KCl, 0.5 ug BSA, 0.25% glycerol, room temperature, 6% native gel 0.5X TBE at 4 C; details: protein: recombinant; tags: C-terminal c-Myc and His6; label: 5'-biotin; single strand
rHuR (HuR-Myc-His) [3] = target: T2, rHuR (HuR-Myc-His); experiment: AlphaScreen saturation binding; AlphaScreen: 25 mM HEPES pH 7.4, 100 mM NaCl, 0.1% BSA, room temperature; REMSA: 20 mM HEPES pH 7.5, 50 mM KCl, 0.5 ug BSA, 0.25% glycerol, room temperature, 6% native gel 0.5X TBE at 4 C; details: protein: recombinant; tags: C-terminal c-Myc and His6; label: 5'-biotin; single strand
rHuR (HuR-Myc-His) [4] = target: T2, rHuR (HuR-Myc-His); experiment: AlphaScreen saturation binding; repeat alongside Bi-COX; AlphaScreen: 25 mM HEPES pH 7.4, 100 mM NaCl, 0.1% BSA, room temperature; REMSA: 20 mM HEPES pH 7.5, 50 mM KCl, 0.5 ug BSA, 0.25% glycerol, room temperature, 6% native gel 0.5X TBE at 4 C; details: protein: recombinant; tags: C-terminal c-Myc and His6; label: 5'-biotin; single strand
rTTP (His-Strep-TTP) = target: T3, rTTP (His-Strep-TTP) (Mus musculus, UniProt P22893 1-319); experiment: AlphaScreen competition; rTTP displacing 1 nM rHuR from 50 nM Bi-TNF; AlphaScreen: 25 mM HEPES pH 7.4, 100 mM NaCl, 0.1% BSA, room temperature; REMSA: 20 mM HEPES pH 7.5, 50 mM KCl, 0.5 ug BSA, 0.25% glycerol, room temperature, 6% native gel 0.5X TBE at 4 C; details: protein: recombinant; tags: His-Strep; label: 5'-biotin; single strand
T3 sequence: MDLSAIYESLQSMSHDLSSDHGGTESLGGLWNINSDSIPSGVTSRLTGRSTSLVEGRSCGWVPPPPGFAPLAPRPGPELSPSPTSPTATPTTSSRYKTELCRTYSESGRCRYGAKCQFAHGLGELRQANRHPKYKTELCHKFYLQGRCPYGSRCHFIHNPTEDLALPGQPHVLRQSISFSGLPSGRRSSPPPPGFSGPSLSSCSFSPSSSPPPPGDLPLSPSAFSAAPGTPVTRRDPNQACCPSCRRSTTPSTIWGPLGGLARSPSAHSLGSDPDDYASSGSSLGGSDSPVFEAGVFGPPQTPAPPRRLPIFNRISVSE

T2 sequence (Q15717 whole entry): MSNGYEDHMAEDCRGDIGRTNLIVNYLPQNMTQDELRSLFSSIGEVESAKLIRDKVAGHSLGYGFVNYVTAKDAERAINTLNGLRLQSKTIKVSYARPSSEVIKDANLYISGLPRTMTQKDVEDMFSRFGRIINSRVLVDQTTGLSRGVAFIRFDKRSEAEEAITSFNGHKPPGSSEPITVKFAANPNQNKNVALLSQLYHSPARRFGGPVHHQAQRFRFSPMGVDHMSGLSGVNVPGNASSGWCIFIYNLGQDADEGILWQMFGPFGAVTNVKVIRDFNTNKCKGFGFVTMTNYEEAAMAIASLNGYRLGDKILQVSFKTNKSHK
T1 sequence (Q15717 2-326): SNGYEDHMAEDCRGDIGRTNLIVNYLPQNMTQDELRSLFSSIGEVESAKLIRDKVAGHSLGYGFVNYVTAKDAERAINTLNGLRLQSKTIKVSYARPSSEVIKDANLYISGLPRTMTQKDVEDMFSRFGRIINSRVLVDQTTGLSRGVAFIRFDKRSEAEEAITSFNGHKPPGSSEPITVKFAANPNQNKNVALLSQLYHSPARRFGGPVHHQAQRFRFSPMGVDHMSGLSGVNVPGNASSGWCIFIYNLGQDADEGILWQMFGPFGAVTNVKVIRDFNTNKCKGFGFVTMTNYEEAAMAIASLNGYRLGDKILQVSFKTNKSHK

In the case of `O=C1c2c(O)ccc(O)c2C(=O)c2c(NCCNCCO)ccc(NCCNCCO)c21` [compound 16, Mitoxantrone], the “AlphaScreen (25 nM) and REMSA (0.5 μM) of rHuR-RNA complex formation” value (HuR/ELAVL1) is reported as “Mitoxantrone revealed to be a compound interfering with rHuR binding to Bi-TNF in both of our in vitro assays”.

B1: U-TNF (ssRNA)
RNA: AUUAUUUAUUAUUUAUUUAUUAUUUA
B1 gave a Ki (rHuR (HuR-Myc-His) [1]) of 4.49 ± 1.1 nM.

B2: Bi-TNFneg (ssRNA)
RNA: ACCACCCACCACCCACCCACCACCCA
B2: no binding (rHuR (HuR-Myc-His) [2]).

B3: Bi-COX (ssRNA)
RNA: UAUUAAUUUAAUUAUUUAAUAAUAUUU
B3 showed a Kd (rHuR (HuR-Myc-His) [3]) of 4.58 ± 1.2 nM.

B4: Bi-TNF (ssRNA)
RNA: AUUAUUUAUUAUUUAUUUAUUAUUUA
Work on B4 yielded a Kd (rHuR (HuR-Myc-His) [3]) of 2.5 ± 0.6 nM, a Kd (rHuR (HuR-Myc-His) [4]) of 2.75 nM and a Ki (rTTP (His-Strep-TTP)) of 0.00176 ± 0.00041 nM.
